The source of these data is patent US20250027068.

Residue numbers refer to the chain shown, from its start.

B1: PRT-273 (protein)
chain: MVTSVWTKGVTPPTDFIYGEDVLHAPYKAGQGWYDITKTFNGKDNLLCGAATAGNMLHWWFDQNKEQIENYLKKHPEKQKIIFNNQELFDLKAAIDTKDSQLDSKLFEYFKEKAFPNLSTKHLGVFPDHVIDMFINGYRLSLLNHGPTPVKRGSKDKRGGIFDAVFTRGVQSKLLTNRHDLKNKTLKEISDLIKQELTEGKALGISHTYANVRINHVINLWGADFDAEGNLEAIYVTDSDTNASIGMKKYFVGVNSSGKVAISAKEIEEDNIGAQVLGLFTLSTGQDIWNQTN
B2: PRT-281 (protein)
chain: MVTSVWTKGVTPPAKFTQGEDVFHAPYVANQGWYDITKTFNGKDDLLCGAATAGNMLHWWFDQNKEKIEAYLKKHPDKQKIMFGDQELLDVRKVINTKGDQTNSELFNYFRDKAFPNLSARRIGVMPDLVLDMFINGYYLNVYKTQTTDVNRTYQEKDRRGGIFDAVFTRGDQSKLLTSRHDFKEKNLKEISDLIKKELTEGKALGLSHTYANVRIGHVINLWGADFDSNGNLKAIYVTDSDSNASIGMKKYFVGVNSSGKVAISAKEIKEDNIGAQVLGLFTLSTGQDSWNQTN
B3: PRT-249 (protein)
chain: MVTSVWTKGVTPPTNFTYGEDVLHAPYVANQGWYDITKTFNGKDDLLCGAATAGNMLHWWFDQNKEQIENYLKKHPEKQKINFNGEQMFDVKEAIDTKDSQLDSKLFDYFKEKAFPNLSTKHLGVFPDHVIDMFINGYRLSLLNHGPTPVKRGSKDPRGGIFDAVFTRGDQSKLLTNRHDFKEKTLKEISDLIKQELTEGKALGISHTYANVRINHVINLWGADFDAEGNLEAIYVTDSDSNPSIGMKKYFVGVNSSGKVAISAKEIEEDNIGAQVLGLFTLSTGQDIWNQTN
B4: PRT-257 (protein)
chain: B3 chain with T39L, N117Y, L143T
B5: PRT-265 (protein)
chain: MVTSVWTKGVTPPTNFTYGEDVLHAPYVANQGWYDITKLFNGKDNLLCGAATAGNMLHWWFDQNKEQIENYLKKHPEKQKINFNGEQLFDVKEAIDTKDSQLDSKLFEYFLEKAFPYLSTKHLGVFPDHVIDMFINGYRLSLTNHGPTPVKRGSKDKRGGIFDAVFTRGVQSKLLTNRHDFKEKTLKEISDLIKQELTEGKALGISHTYANVRINHVINLWGADFDAEGNLEAIAVTDSDTNASIGMKKYFVGVNSSGKVAISAKEIEEDNIGAQVLGLFTLSTGQDIWNQTN
B6: PRT-23 (protein)
chain: MANQEIRYSEVTPYHVTSVWTKGVTPPANFTQGEDVFHAPYVANQGWYDITKTFNGKDDLLCGAATAGNMLHWWFDQNKDQIERYLKEHPEKQKINFNGEQMFDVKEAIDTKNSQTDSKLFEYFKEKAFPYLSTKHLGVFPDHVIDMFINGYRLSLTNHGPTPVKEGSKDPRGGIFDAVFTRGDQSKLLTSRHDFKEKNLKEISDLIKKELTEGKALGLSHTYANVRINHVINLWGADFDSNGNLEAIYVTDSDSNASIGMKKYFVGVNSAGKVAISAKEIKEDNIGAQVLGLFTLSTGQDIWNQTN

In this data set the target is pooled human IgG.
As for B1, the Enzyme Activity Endpoint Assay (purified): Fab'2 was 782 ng/µL, the Enzyme Activity Endpoint Assay (purified): Fc was found to be 429 ng/µL, the Enzyme Activity Endpoint Assay (purified): IgG was 0 ng/µL and the Enzyme Activity Endpoint Assay (purified): scIgG is 0 ng/µL.
Protein B2 showed an Enzyme Activity Endpoint Assay (purified): Fab'2 of 673 ng/µL, an Enzyme Activity Endpoint Assay (purified): Fc of 317 ng/µL, an Enzyme Activity Endpoint Assay (purified): IgG of 347 ng/µL and an Enzyme Activity Endpoint Assay (purified): scIgG of 29 ng/µL.
In turn, B3 yielded an Enzyme Activity Endpoint Assay (purified): Fab'2 of 818 ng/µL, an Enzyme Activity Endpoint Assay (purified): Fc of 457 ng/µL, an Enzyme Activity Endpoint Assay (purified): IgG of 0 ng/µL and an Enzyme Activity Endpoint Assay (purified): scIgG of 0 ng/µL.
On to B4, for which the Enzyme Activity Endpoint Assay (purified): Fab'2 stood at 1050 ng/µL, the Enzyme Activity Endpoint Assay (purified): Fc is 439 ng/µL, the Enzyme Activity Endpoint Assay (purified): IgG stood at 0 ng/µL and the Enzyme Activity Endpoint Assay (purified): scIgG is 0 ng/µL.
In turn, B5 registered an Enzyme Activity Endpoint Assay (purified): Fab'2 of 0 ng/µL, an Enzyme Activity Endpoint Assay (purified): Fc of 3 ng/µL, an Enzyme Activity Endpoint Assay (purified): IgG of 1640 ng/µL and an Enzyme Activity Endpoint Assay (purified): scIgG of 0 ng/µL.
As to B6, the Enzyme Activity Endpoint Assay: Fab′2 came to 45 ng/µL, the Enzyme Activity Endpoint Assay: Fc is 125 ng/µL, the Enzyme Activity Endpoint Assay: IgG is 12 ng/µL and the Enzyme Activity Endpoint Assay: scIgG was determined as 19 ng/µL.
